In patent US20110262446A1 (published 2011):

How the values were obtained:
[1] = molecular target: T1, IGF-II (amino acids 1-67) (human, UniProt P01344 25-91); experiment: SPR (Flexchip), Fab, second of duplicate; unit inferred
T1 construct: mature; also called IGF-II (67aa); IGF2

[2] = molecular target: T1, IGF-II (amino acids 1-67); experiment: competition SPR (Biacore T100), affinity in solution: Fab pre-incubated with ligand, free ligand read on immobilized huIR-A ECD; measurement #2; head prints 'KD nM'
Method: (§1) Competition SPR (BIACORE®) was performed under conditions of partially mass-transport limited conditions according to previously described methodology (Nieba et al., 1996). Approximately 16,700 relative response units (RU) of huIR-A (-exon11) ectodomain was coupled by standard amine chemistry to a BIACORE® CM5 chip sensor. Uncoated flow-cell surface was used as a reference. […] Regeneration of the surface was achieved by injection of 30 ul NaCltrate/NaCl pH 4.5. […] These Req estimates were subsequently plotted against total concentrations of Fab used and the resulting inhibition curve was utilised to calculate dissociation constant (KD).

[3] = molecular target: T1, IGF-II (amino acids 1-67); experiment: cell-based or functional assay
[4] = molecular target: T1, IGF-II (amino acids 1-67); experiment: competition SPR (Biacore T100), affinity in solution: Fab pre-incubated with ligand, free ligand read on immobilized huIR-A ECD; measurement #1; head prints 'KD nM'
Method: as §1

[5] = molecular target: T1, IGF-II (amino acids 1-67); experiment: SPR (Flexchip), Fab, first of duplicate; unit inferred
IGF-I = IGF-I (UniProt P05019 49-118); experiment: cell-based or functional assay
[6] = molecular target: T1, IGF-II (amino acids 1-67); experiment: competition SPR (Biacore T100) on immobilized huIR-A ECD, measurement #1
Method: as §1

[7] = molecular target: T1, IGF-II (amino acids 1-67); experiment: SPR (Biacore T100): IgG captured on Protein G', ligand bound, then BP injected; competitor BP2
Method: (§2) BIACORE® T100 and a CM5 chip coated with Protein G were utilised to set up following assay. Approximately 1000 RU of Protein G′ was immobilized on a CM5 chip using standard amine chemistry immobilization method. Entire assay consisted of three sequential injection of following four reagents 1) Candidate IgG was injected onto Protein G′ at 10 ug/ml at 5 ul/min for 180 sec.

[8] = molecular target: T1, IGF-II (amino acids 1-67); experiment: SPR (Biacore T100): IgG captured on Protein G', ligand bound, then BP injected; competitor BP4
Method: as §2

[9] = molecular target: T1, IGF-II (amino acids 1-67); experiment: cell-based or functional assay; remark: listed apart in the source
[10] = molecular target: T1, IGF-II (amino acids 1-67); experiment: SPR (Biacore), non-germlined IgG

T1 sequence (P01344 25-91): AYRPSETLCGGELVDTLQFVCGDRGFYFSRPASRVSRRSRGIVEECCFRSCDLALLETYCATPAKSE
IGF-I, sequence (P05019 49-118 limits assumed): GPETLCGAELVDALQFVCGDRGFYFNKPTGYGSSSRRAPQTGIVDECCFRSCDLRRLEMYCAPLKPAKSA

Binder	Kd [1] [nM]	IC50, IGF-II stimulated BA/F3 cell proliferation (MTS) [3] [µg/mL]	Kd [4] [nM]	Kd [5] [nM]	decrease in IGF-I stimulated cell proliferation, sFab at 50 µg/ml (IGF-I) [%]	competition score (0 = does not compete significantly, 5 = competes strongly) [7] [score 0-5]	competition score (0 = does not compete significantly, 5 = competes strongly) [8] [score 0-5]	also measured
M0064-E04 Fab (Fab, V domains shown, Soluble Fab from phage display; also called M0064-E04(R0032-A03); 566A-M0064-E04) VH: EVQLLESGGGLVQPGGSLRLSCAASGFTFSVYDMNWVRQAPGKGLEWVSSISSSGGGTLYADSVKGRFTISRDNSKNTLYLQMNSLRAEDTAVYYCARDSDTSSYYWYYDLWGRGTLVTVSS VL: DIQMTQSPSSLSASVGDRVTITCQASHDISNYLNWYQQKPGKAPKLLIYAASRLQSGVPSRFSGGGSGTDFSLTISSLQAEDFATYYCQQSYSFPRTFGQGTNLEIKR	0.25	3.04	0.608	0.12	~30	–	–	Kd [2]: 1.11 nM
M0073-C11 Fab (Fab, V domains shown, Anti-IGF-IIE Fab; the constant regions are printed only in part; also called 566A-M0073-C11; 566A-X0003-B02) VH: EVQLLESGGGLVQPGGSLRLSCAASGFTFSPYDMWWVRQAPGKGLEWVSSISSSGGITAYADSVKGRFTISRDNSKNTLYLQMNSLRAEDTAVYYCARAGYSSSWGYYYYGMDVWGQGTTVTVSS VL: QSALTQPPSVSVSPGQTASITCSGDRLGDKYASWYQQKPGQSPVLVIYQDTKRPSGIPERFSGSNSGSTATLTISGTQAMDEADYYCQAWDSSTVVFGGGTKLTVL	–	–	–	–	–	–	–	binding result [6]: no binding
M0063-F02 Fab (Fab, V domains shown, Soluble Fab from phage display; also called M0063-F02(R0032-A01)) VH: EVQLLESGGGLVQPGGSLRLSCAASGFTFSKYEMDWVRQAPGKGLEWVSVISSSGGGTIYADSVKGRFTISRDNSKNTLYLQMNSLRAEDTAMYYCARGRTLYGGAFDIWGQGTMVTVSS VL: DIQMTQSPSSLSASVGDRVTITCRASQPINTYLNWYQQRPGKAPRILIYTSSTLQSGVPSRFSGSGSGTDFTLTISSVQPEDFATYYCQQSYSFPLTFGGGTKVEIKR	1.6	5.56	1.17	0.77	~30	–	–	Kd [2]: 0.858 nM
M0063-F02 IgG (antibody, V domains shown, IgG form of the Fab; Variable domains as printed for the Fab (LV with its leading Q)) VH: EVQLLESGGGLVQPGGSLRLSCAASGFTFSKYEMDWVRQAPGKGLEWVSVISSSGGGTIYADSVKGRFTISRDNSKNTLYLQMNSLRAEDTAMYYCARGRTLYGGAFDIWGQGTMVTVSS VL: DIQMTQSPSSLSASVGDRVTITCRASQPINTYLNWYQQRPGKAPRILIYTSSTLQSGVPSRFSGSGSGTDFTLTISSVQPEDFATYYCQQSYSFPLTFGGGTKVEIK	–	–	–	–	–	1	0	IC50, IGF-II stimulated BaF3 cell proliferation (Guava ViaCount) [9]: 2 nM; IC50, IGF-II stimulated BaF3 cell proliferation (Guava ViaCount), second study [9]: ~7 nM
M0072-G06 Fab (Fab, V domains shown, Soluble Fab from phage display; also called M0072-G06(R0032-C05)) VH: EVQLLESGGGLVQPGGSLRLSCAASGFTFSEYVMWWVRQAPGKGLEWVSVISPSGGYTVYADSVKGRFTISRDNSKNTLYLQMNSLRAEDTAVYYCARDRGGATTLDYWGQGTLVTVSS VL: DIQMTQSPSTLSASVGDRVTITCRASQTISSWLAWYQQKPGKAPKLMIYKAASLGSEVPSRFSGSGSGTEFTLTISSLQPEDFSTYYCQQYKTYPVTFGQGTRLEIKR	1.4	8.7	3.99	0.58	–	–	–	–
M0072-G06 IgG (antibody, V domains shown) VH: EVQLLESGGGLVQPGGSLRLSCAASGFTFSEYVMWWVRQAPGKGLEWVSVISPSGGYTVYADSVKGRFTISRDNSKNTLYLQMNSLRAEDTAVYYCARDRGGATTLDYWGQGTLVTVSS VL: DIQMTQSPSTLSASVGDRVTITCRASQTISSWLAWYQQKPGKAPKLMIYKAASLGSEVPSRFSGSGSGTEFTLTISSLQPEDFSTYYCQQYKTYPVTFGQGTRLEIK	–	–	–	–	–	2	1	–
M0064-F02 Fab (Fab, V domains shown, Soluble Fab from phage display; also called M0064-F02(R0032-A11); 566A-M0064-F02) VH: EVQLLESGGGLVQPGGSLRLSCAASGFTFSNYIMWWVRQAPGKGLEWVSVISSSGGMTRYADSVKGRFTISRDNSKNTLYLQMNSLRAEDTAVYYCARDNGDYVGEKGFDIWGQGTMVTVSS VL: DIQMTQSPSSLSASVGDRVTITCRASQSISNYLNWYQQKPGKAPKLLIYTASTLQSGVPSRFSGSASGTDFTLTINSLQPEDFATYSCQQSYNSPWTFGQGTKVEIKR	1.2	0.68	1.03	0.45	~30	–	–	Kd [2]: 0.503 nM
M0064-F02 IgG (antibody, V domains shown, IgG form of the Fab; also called non-germlined M0064-F02) VH: EVQLLESGGGLVQPGGSLRLSCAASGFTFSNYIMWWVRQAPGKGLEWVSVISSSGGMTRYADSVKGRFTISRDNSKNTLYLQMNSLRAEDTAVYYCARDNGDYVGEKGFDIWGQGTMVTVSS VL: DIQMTQSPSSLSASVGDRVTITCRASQSISNYLNWYQQKPGKAPKLLIYTASTLQSGVPSRFSGSASGTDFTLTINSLQPEDFATYSCQQSYNSPWTFGQGTKVEIK	–	–	–	–	–	4	4	Kd [10]: 0.14 nM
M0072-E03 Fab (Fab, V domains shown, Soluble Fab from phage display; also called M0072-E03(R0032-C03)) VH: EVQLLESGGGLVQPGGSLRLSCAASGFTFSEYEMSWVRQAPGKGLEWVSSIYSSGGWTKYTDSVKGRFTISRDNSKNTLYLQMNSLRAEDTAVYYCAKGVHYDSSGLPIDWYFDLWGRGTLVTVSS VL: not shown	0.3	–	2.62	0.75	~30	–	–	–
M0072-E03 IgG (antibody, V domains shown) VH: EVQLLESGGGLVQPGGSLRLSCAASGFTFSEYEMSWVRQAPGKGLEWVSSIYSSGGWTKYTDSVKGRFTISRDNSKNTLYLQMNSLRAEDTAVYYCAKGVHYDSSGLPIDWYFDLWGRGTLVTVSS VL: not shown	–	–	–	–	–	4	4	–
M0080-G03 Fab (Fab, V domains shown, Anti-IGF-IIE Fab; the constant regions are printed only in part; also called 566A-M0080-G03; 566A-X0004-A02) VH: EVQLLESGGGLVQPGGSLRLSCAASGFTFSFYQMMWVRQAPGKGLEWVSSISPSGGRTYYADSVKGRFTISRDNSKNTLYLQMNSLRAEDTAVYYCAKDIGLGYCSSTSCYTGTPLDYWGQGTLVTVSS VL: not shown	–	–	–	–	–	–	–	binding result [6]: no binding
M0070-H08 IgG (antibody, V domains shown) VH: EVQLLESGGGLVQPGGSLRLSCAASGFTFSRYWMIWVRQAPGKGLEWVSSIRSSGETKYADSVKGRFTISRDNSKNTLYLQMNSLRAEDTAVYYCARGPLSDYYDSSGYYFDAFDIWGQGTMVTVSS VL: DIQMTQSPSSLSASAGDRVTITCRASQSISSYLNWYQQKPGKAPNLLIYTTSNLQGGVPSRFSGSGSGTDFTLTISSLQPEDFATYYCQQGYSFPLTFGGGTKVEIK	–	–	–	–	–	3	2	–
M0070-H08 Fab (Fab, V domains shown, Soluble Fab from phage display; also called M0070-H08(R0032-A07)) VH: EVQLLESGGGLVQPGGSLRLSCAASGFTFSRYWMIWVRQAPGKGLEWVSSIRSSGETKYADSVKGRFTISRDNSKNTLYLQMNSLRAEDTAVYYCARGPLSDYYDSSGYYFDAFDIWGQGTMVTVSS VL: DIQMTQSPSSLSASAGDRVTITCRASQSISSYLNWYQQKPGKAPNLLIYTTSNLQGGVPSRFSGSGSGTDFTLTISSLQPEDFATYYCQQGYSFPLTFGGGTKVEIKR	1.1	–	3.24	3.3	–	–	–	–
M0072-C06 Fab (Fab, V domains shown, Soluble Fab from phage display; Often printed as M0072-006; also called M0072-006; M0072-C06(R0032-A09)) VH: EVQLLESGGGLVQPGGSLRLSCAASGFTFSAYIMTWVRQAPGKGLEWVSSISPSGGYTVYADSVKGRFTISRDNSKNTLYLQMNSLRAEDTAVYYCARDSGFGDPFDYWGQGTMVTVSS VL: DIQMTQSPSSLSASVGDRVTITCRASQSIRNYLNWYQQKPGKAPKLLIYAASKLEDGVPSRFSGSGTGTDFTLTIRSLQPEDFASYFCQQSYSSPGITFGPGTKVEIKR	0.7	5.12	1.64	5.2	~30	–	–	Kd [2]: 2.52 nM
M0072-C06 IgG (antibody, V domains shown) VH: EVQLLESGGGLVQPGGSLRLSCAASGFTFSAYIMTWVRQAPGKGLEWVSSISPSGGYTVYADSVKGRFTISRDNSKNTLYLQMNSLRAEDTAVYYCARDSGFGDPFDYWGQGTMVTVSS VL: DIQMTQSPSSLSASVGDRVTITCRASQSIRNYLNWYQQKPGKAPKLLIYAASKLEDGVPSRFSGSGTGTDFTLTIRSLQPEDFASYFCQQSYSSPGITFGPGTKVEIK	–	–	–	–	–	3	2	–
